Key:
[1] = target: CH235 UCA2 (unmutated common ancestor of the CH235/CH235.12 lineage), IgG; assay: SPR; details: apparent KD, average of two measurements
[2] = target: Man5-enriched stabilized CH505TF.N279K.G458Y.SOSIP.664 Env trimer (made in 293S GnT1- cells) (HIV-1 clade C, strain CH505 transmitted/founder | HIV-1 clade A, strain BG505) (UniProt Q2N0S6); assay: cryo-EM structure; trimer at 1 mg/ml incubated with 4-5-fold molar excess of CH235 UCA2 Fab for 30-60 minutes, 0.085 mM dodecyl-maltoside; C3 symmetry, 4.2 Å
[3] = target: CH235 UCA2 (unmutated common ancestor of the CH235/CH235.12 lineage), IgG (human); assay: SPR; Biacore 3000; CH235 UCA2 antibody captured (200-350 RU) by goat anti-human IgG Fc immobilised on a CM3 chip; SOSIP trimers 50-750 nM in HBS-EP+ injected 5 min at 50 ul/min, 10 min dissociation; 1:1 Langmuir model with local Rmax; apparent KD, average of two measurements
[4] = target: Man5-enriched CH505TF.G458Y Env on pseudovirus produced in 293S GnT1- cells (HIV-1 clade C, strain CH505 transmitted/founder); details: scale: fold less susceptible than the Man5-enriched double mutant
[5] = target: Man5-enriched CH505TF.N279K Env on pseudovirus produced in 293S GnT1- cells (HIV-1 clade C, strain CH505 transmitted/founder); details: scale: fold less susceptible than the Man5-enriched double mutant
[6] = target: CH505TF.N279K.G458Y Env on pseudovirus produced in 293T cells (not Man5-enriched) (HIV-1 clade C, strain CH505 transmitted/founder)
[7] = target: Man5-enriched stabilized CH505TF.N279K.G458Y.SOSIP.664 Env trimer (made in 293S GnT1- cells) (HIV-1 clade C, strain CH505 transmitted/founder | HIV-1 clade A, strain BG505) (UniProt Q2N0S6)
[8] = trimer produced in Freestyle293 (293F) cells, parent: NB
[9] = trimer produced in 293S GnT1- cells

Sequence of CH235 UCA2 (unmutated common ancestor of the CH235/CH235.12 lineage), IgG (human) (heavy, as listed by the source, chain 1 of 2): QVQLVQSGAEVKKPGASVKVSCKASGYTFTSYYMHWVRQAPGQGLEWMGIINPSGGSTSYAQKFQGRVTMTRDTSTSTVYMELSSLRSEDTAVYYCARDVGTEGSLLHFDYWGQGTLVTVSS
Sequence of CH235 UCA2 (unmutated common ancestor of the CH235/CH235.12 lineage), IgG (human) (light, as listed by the source, chain 2 of 2): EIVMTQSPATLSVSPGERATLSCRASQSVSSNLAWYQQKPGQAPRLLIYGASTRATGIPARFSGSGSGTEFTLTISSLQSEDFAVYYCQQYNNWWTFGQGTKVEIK

CH505TF SOSIP.664 v4.1 (293F) N279K; G458Y
Kd [1, 8]: 83 nM

CH235 UCA2 Fab
stoichiometry N (Fabs per Env trimer) [2]: 3

Man5-enriched stabilized CH505TF.N279K.G458Y.SOSIP.664 Env trimer (made in 293S GnT1- cells) (from UniProt Q2N0S6 1-860) (complex)
Kd [3]: 9 nM

Man5-enriched stabilized parental CH505TF SOSIP.664 Env trimer (made in 293S GnT1- cells) (from UniProt Q2N0S6) N279K
Kd [1, 9]: 28 nM

Man5-enriched stabilized parental CH505TF SOSIP.664 Env trimer (made in 293S GnT1- cells) (from UniProt Q2N0S6) G458Y
Kd [1, 9]: 996 nM

CH505TF SOSIP.664 v4.1 (293F) N279K
Kd [1, 8]: 154 nM

CH235 UCA2 (unmutated common ancestor of the CH235/CH235.12 lineage), IgG (antibody)
neutralization in TZM-bl cells: fold less susceptible than the Man5-enriched double mutant [4]: 973 | neutralization in TZM-bl cells: fold less susceptible than the Man5-enriched double mutant [5]: 92 | IC50 of neutralization of CH505TF.N279K.G458Y Env-pseudotyped virus that was not Man5-enriched, in TZM-bl cells [6]: 9.2 µg/mL | IC50 of neutralization of Man5-enriched (293S GnT1-) CH505TF.N279K.G458Y Env-pseudotyped virus in TZM-bl cells (full-length Env on virus, not the SOSIP) [7]: 0.04 µg/mL

Reference: publication PMC6764681
